Biological target: T1, GST-UTP13^1–320 (human, UniProt Q12788 1-320)
T1 sequence: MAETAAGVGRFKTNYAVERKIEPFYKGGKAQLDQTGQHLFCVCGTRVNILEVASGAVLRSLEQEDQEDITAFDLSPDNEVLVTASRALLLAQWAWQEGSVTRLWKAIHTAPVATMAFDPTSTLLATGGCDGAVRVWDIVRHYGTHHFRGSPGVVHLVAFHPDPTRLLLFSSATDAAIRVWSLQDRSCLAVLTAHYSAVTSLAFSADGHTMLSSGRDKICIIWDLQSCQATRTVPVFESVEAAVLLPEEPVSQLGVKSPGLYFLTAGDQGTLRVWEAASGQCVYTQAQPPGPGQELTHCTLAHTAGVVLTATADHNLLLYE
Assay: pull-down

- binding result: binds
B1: HIS-UTP3^1–319 (domain or fragment)
chain: MVGRSRRRGAAKWAAVRAKAGPTLTDENGDDLGLPPSPGDTSYYQDQVDDFHEARSRAALAKGWNEVQSGDEEDGEEEEEEVLALDMDDEDDEDGGNAGEEEEEENADDDGGSSVQSEAEASVDPSLSWGQRKKLYYDTDYGSKSRGRQSQQEAEEEEREEEEEAQIIQRRLAQALQEDDFGVAWVEAFAKPVPQVDEAETRVVKDLAKVSVKEKLKMLRKESPELLELIEDLKVKLTEVKDELEPLLELVEQGIIPPGKGSQYLRTKYNLYLNYCSNISFYLILKARRVPAHGHPVIERLVTYRNLINKLSVVDQKLS

Reference: PMC11381329 (Nucleic Acids Research, 2024)
